The record followed here is IntAct's records for PubMed 21224850.

Sequences and labels used below:
B1: Cell division protein SepF (Bacillus subtilis), O31728 (parent)
chain: MSMKNKLKNFFSMEDEEYEYEYIETERESHEEHEQKEKPAYNGNKPAGKQNVVSLQSVQKSSKVVLSEPRVYAEAQEIADHLKNRRAVVVNLQRIQHDQAKRIVDFLSGTVYAIGGDIQRIGSDIFLCTPDNVDVSGTISELISEDEHQRW
partner: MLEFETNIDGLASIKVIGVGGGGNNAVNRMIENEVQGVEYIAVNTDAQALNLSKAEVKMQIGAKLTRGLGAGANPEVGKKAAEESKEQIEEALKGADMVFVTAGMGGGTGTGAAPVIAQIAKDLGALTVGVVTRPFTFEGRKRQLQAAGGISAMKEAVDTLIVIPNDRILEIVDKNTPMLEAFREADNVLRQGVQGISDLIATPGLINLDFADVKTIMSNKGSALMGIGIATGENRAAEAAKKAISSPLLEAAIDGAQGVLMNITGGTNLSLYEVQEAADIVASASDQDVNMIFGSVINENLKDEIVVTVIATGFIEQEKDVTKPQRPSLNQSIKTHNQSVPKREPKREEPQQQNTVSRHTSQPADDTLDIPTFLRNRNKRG

In the first test the parent is B1. The conditions noted are these: with ftsz_bacsu ftsZ.
Take MSMKNKLKNFFSMEDEEYEYEYIETERESHEEHEQKEKPAYNGNKPAGKQNVVSLQSVQKSSKVVLSEPRVYAEAQEIADHLKNRRAVVVNLQRIQHDQAKRIVDFLSGTVYAIGGDIQRIGSDISLCTPDNVDVSGTISELISEDEHQRW [F126S]: the “effect of a mutation on the interaction” value was “disrupting interaction”.

Variants of B1 are the subject of another test. The note with it: with ftsz_bacsu ftsZ. This is another data set of the same source.
MSMKNKLKNFFSMEDEEYEYEYIETERESHEEHEQKEKPAYNGNKPAGKQNVVSLQSVQKSSKVVLSEPRVYAEAQEIADHLKNRRAVVVNLQRIQHDQVKRIVDFLSGTVYAIGGDIQRIGSDIFLCTPDNVDVSGTISELISEDEHQRW [A100V]: the “effect of a mutation on the interaction” value is on record as “disrupting interaction”.
